Molecular target: T1, B3GNT2 (Homo sapiens, UniProt Q9NY97)
T1 construct: The respective ORFs of candidate genes [CD274 (NM_014143), MCL1 (NM_021960), JUNB (NM_002229), and B3GNT2 (NM_006577)] were synthesized; expressed in transfected cells; host or cells: A375 melanoma cells (lentiviral ORF overexpression)
T1 sequence (Q9NY97 1-397): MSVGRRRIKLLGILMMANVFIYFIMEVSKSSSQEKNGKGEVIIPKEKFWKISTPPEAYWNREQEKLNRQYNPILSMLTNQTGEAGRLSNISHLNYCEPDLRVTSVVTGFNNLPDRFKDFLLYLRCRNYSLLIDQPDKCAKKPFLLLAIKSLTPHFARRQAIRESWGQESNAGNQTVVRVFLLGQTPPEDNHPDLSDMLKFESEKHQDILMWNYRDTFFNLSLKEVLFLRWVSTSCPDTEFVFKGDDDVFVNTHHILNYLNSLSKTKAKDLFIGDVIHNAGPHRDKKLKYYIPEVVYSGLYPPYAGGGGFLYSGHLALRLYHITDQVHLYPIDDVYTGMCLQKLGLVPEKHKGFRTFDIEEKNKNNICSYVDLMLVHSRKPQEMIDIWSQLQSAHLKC
Experiment: Co-IP of FLAG-tagged B3GNT2 followed by mass spectrometry
Format: cell-based
Parameters: C-term IgG / C-term flag: unit not given here
Description: Cells were plated in 10-cm cell culture dishes and grown to 60-80% confluency. For each condition, two biological replicates were harvested for co-IP. Cells were washed with PBS and 4 mL of lysis buffer (20 mM HEPES, 1% Triton X-100, 150 mM NaCl, 1 mM EDTA, and 10% glycerol) containing protease inhibitor cocktail was added. Cells were scraped and lysate was incubated at 4° C. under rotary agitation for 1 h. Lysate was centrifuged at 14,000×g for 10 min at 4° C. Supernatant was transferred to a new tube and an aliquot was taken as the input. […] For Western blots, 10 μg/mL Chicken Anti-FLAG (Aves labs ET-DY100) and IgY control (R&D Systems AB-101-C) antibodies were biotinylated (Thermo Fisher Scientific 90407) and added to the respective conditions. Lysates with antibodies were incubated at 4° C. under rotary agitation overnight. For each mL of lysate, 50 μL of Pierce Protein A/G Magnetic Beads (Mass spectrometry; Thermo Fisher Scientific 88803) or Pierce Streptavidin Magnetic Beads (Western blot; Thermo Fisher Scientific 88817) was washed twice with lysis buffer. Lysates with antibodies were added to the beads and incubated at 4° C. under rotary agitation for 4 h. Beads were washed with lysis buffer 3 times and resuspended in lysis buffer for storage. […] This solution was subjected to solid phase extraction to concentrate the peptides and remove unwanted reagents followed by injection onto a Shimadzu HPLC with fraction collector. Eight fractions were collected and after concentration were injected on a Waters NanoAcquity HPLC equipped with a self-packed Aeris 3 μm C18 analytical column 0.075 mm by 20 cm, (Phenomenex). Peptides were eluted using standard reverse-phase gradients. The effluent from the column was analyzed using a Thermo Orbitrap Elite mass spectrometer (nanospray configuration) operated in a data dependent manner for 54 minutes. […] Scaffold Q+S (Proteome Software) was used to provide consensus reports for the identified proteins.

[1] = Co-IP followed by mass spectrometry of B3GNT2, C-term tag, FLAG pull-down
[2] = Co-IP followed by mass spectrometry of B3GNT2, C-term tag, IgG pull-down
[3] = Co-IP followed by mass spectrometry of B3GNT2, N-term tag, FLAG pull-down
[4] = Co-IP followed by mass spectrometry of B3GNT2, N-term tag, IgG pull-down
[5] = Co-IP with FLAG antibody, C-terminally FLAG-tagged B3GNT2, mass spectrometry count, unit not given
[6] = Co-IP with FLAG antibody, N-terminally FLAG-tagged B3GNT2, mass spectrometry count, unit not given
[7] = Co-IP with IgG control antibody, C-terminally FLAG-tagged B3GNT2, mass spectrometry count, unit not given
[8] = Co-IP with IgG control antibody, N-terminally FLAG-tagged B3GNT2, mass spectrometry count, unit not given

| C-term flag [1] | C-term IgG [2] | N-term FLAG [3] | N-term IgG [4] | C-term flag [5] | N-term FLAG [6] | C-term IgG [7] | N-term IgG [8] | Substance |
| --- | --- | --- | --- | --- | --- | --- | --- | --- |
| 6 | 3 | 5 | 3 | – | – | – | – | CFL1 |
| 3 | 0 | 0 | 0 | – | – | – | – | SPTAN1 |
| – | – | – | – | 2 | 0 | 0 | 0 | ABCD1 |
| 3 | 0 | 0 | 0 | – | – | – | – | TCP1 |
| 41 | 30 | 31 | 37 | – | – | – | – | PABPC1 |
| – | – | – | – | 2 | 0 | 0 | 0 | RAB1B |
| – | – | – | – | 4 | 3 | 0 | 3 | HBA1 |
| – | – | – | – | 11 | 24 | 0 | 0 | PRKDC |
| 5 | 0 | 0 | 0 | – | – | – | – | GBF1 |
| 6 | 2 | 2 | 2 | – | – | – | – | EIF4G1 |
| – | – | – | – | 3 | 0 | 0 | 0 | HERC2 |
| 7 | 5 | 2 | 3 | – | – | – | – | MYH11 |
| 5 | 0 | 0 | 0 | – | – | – | – | DHX9 |
| – | – | – | – | 119 | 161 | 13 | 0 | TUBB4B |
| – | – | – | – | 0 | 2 | 0 | 0 | PXN |
| – | – | – | – | 6 | 2 | 0 | 0 | EIF4A1 |
| – | – | – | – | 3 | 15 | 5 | 4 | S100A8 |

| C-term flag [1] | C-term IgG [2] | N-term FLAG [3] | N-term IgG [4] | C-term flag [5] | N-term FLAG [6] | C-term IgG [7] | N-term IgG [8] | Substance |
| --- | --- | --- | --- | --- | --- | --- | --- | --- |
| 146 | 108 | 89 | 87 | – | – | – | – | P01837.1 |
| – | – | – | – | 13 | 10 | 0 | 0 | CALU |
| – | – | – | – | 5 | 5 | 0 | 0 | AIFM1 |
| 4 | 3 | 7 | 4 | – | – | – | – | LGALS7B |
| – | – | – | – | 4 | 3 | 0 | 0 | EPRS |
| 15 | 6 | 6 | 11 | – | – | – | – | PRRC2C |
| – | – | – | – | 2 | 0 | 0 | 0 | LRP2 |
| 12 | 10 | 9 | 8 | – | – | – | – | HNRNPK |
| 4 | 0 | 0 | 0 | – | – | – | – | LAMC1 |
| – | – | – | – | 3 | 0 | 0 | 0 | SUMF2 |
| 3 | 2 | 3 | 2 | – | – | – | – | PKM |
| – | – | – | – | 4 | 14 | 0 | 0 | GCN1 |
| – | – | – | – | 0 | 3 | 0 | 0 | ECPAS |
| – | – | – | – | 5 | 2 | 0 | 0 | UGGT1 |
| – | – | – | – | 4 | 5 | 2 | 2 | ENO1 |
| – | – | – | – | 2 | 0 | 0 | 0 | RNASE1 |
| – | – | – | – | 3 | 0 | 0 | 0 | MON2 |
